{
  "source": "paper PMC8025780",
  "about": "(Biochemistry, 2020)",
  "proteins": {"B1": {"name": "Staphylococcus aureus GbaA, disulfide cross-linked (oxidized) (natural protein)", "chain": "MRKDAKENRQRIEEIAHKLFDEEGVENISMNRIAKELGIGMGTLYRHFKDKSDLCYYVIQRDLDIFITHFKQIKDDYHSNYEVMQVSLDYLLQFKIDNKALLQCIEAGNNKLRFYQSAFYQELFDFYYDLFKSDDDTYTKFKTDMLLQSLSTSVFAFQIEHRHISIEAYRNYLLNIYLDEVGRND", "modifications": "intraprotomer disulfide C55-C104"}},
  "target": "the molecule itself",
  "assay": "SAXS",
  "data": [
    {"protein": "B1", "values": [
      {"measurement": "stoichiometry N", "value": 2}
    ]}
  ]
}
